For 1 protein, Km, kcat and kcat/Km results are on record in publication PMC5986058.

Substrate in the data set: C[C@H](O)[C@H](N)C(=O)O
Kind of data set: purified protein. Format: biochemical, Aeromonas jandaei. The note with it: 50 mM NaPi pH 8, 25 °C, 50 μM PLP.

B1: LTAaj (L-threonine aldolase from Aeromonas jandaei; L-allo-threonine aldolase) (Aeromonas jandaei) (protein)
chain: MRYIDLRSDTVTQPTDAMRQCMLHAEVGDDVYGEDPGVNALEAYGADLLGKEAALFVPSGTMSNLLAVMSHCQRGEGAVLGSAAHIYRYEAQGSAVLGSVALQPVPMQADGSLALADVRAAIAPDDVHFTPTRLVCLENTHNGKVLPLPYLREMRELVDEHGLQLHLDGARLFNAVVASGHTVRELVAPFDSVSICLSKGLGAPVGSLLVGSHAFIARARRLRKMVGGGMRQAGILAQAGLFALQQHVVRLADDHRRARQLAEGLAALPGIRLDLAQVQTNMVFLQLTSGESAPLLAFMKARGILFSGYGELRLVTHLQIHDDDIEEVIDAFTEYLGA
notes: C-terminal His-tag, expressed in E. coli BL21(DE3), Ni-NTA purified, homotetramer, PLP-dependent
With B1, the Km amounted to 500 µM, the kcat stood at 8.67 s⁻¹ and the kcat/Km was 17000 M⁻¹ s⁻¹.
